Several values for one entry are separate records, joined by “and”; a condition that tells them apart may be missing. Identical values can stand only once.

Data set [1] concerns the molecule itself. Briefly: crystal structure.
Data set [2] concerns the molecule itself. Briefly: negative-stain EM.
The target in data set [3] is T1, MlaA with C-terminal 6xHis tag (E. coli, UniProt P76506 18-251).
T1 sequence (looked up): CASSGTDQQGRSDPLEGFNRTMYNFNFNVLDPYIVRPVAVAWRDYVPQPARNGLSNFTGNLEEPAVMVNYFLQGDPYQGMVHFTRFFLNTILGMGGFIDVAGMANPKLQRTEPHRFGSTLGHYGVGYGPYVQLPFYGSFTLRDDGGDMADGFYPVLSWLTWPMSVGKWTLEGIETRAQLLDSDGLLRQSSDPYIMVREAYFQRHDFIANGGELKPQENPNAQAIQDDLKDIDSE
Briefly: affinity purification with mass spectrometry.

Data set [4] has as its target T2, MlaE (E. coli, UniProt P64606 1-260).
T2 sequence (looked up): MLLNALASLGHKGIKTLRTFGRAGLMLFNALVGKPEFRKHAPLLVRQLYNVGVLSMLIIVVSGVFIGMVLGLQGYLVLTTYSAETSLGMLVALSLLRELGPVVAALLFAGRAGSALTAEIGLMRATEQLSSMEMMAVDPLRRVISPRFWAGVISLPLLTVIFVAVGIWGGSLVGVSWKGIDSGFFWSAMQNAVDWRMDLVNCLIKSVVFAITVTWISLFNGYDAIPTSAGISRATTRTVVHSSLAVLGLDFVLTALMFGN
Briefly: affinity purification with mass spectrometry.

Data set [5] concerns the molecule itself. Briefly: cryo-EM structure.

B1: MlaD core MCE domain (residues 32-140) (domain or fragment, E. coli, UniProt P64604 32-140, looked up)
chain: TSIRTEPTYTLYATFDNIGGLKARSPVSIGGVVVGRVADITLDPKTYLPRVTLEIEQRYNHIPDTSSLSIRTSGLLGEQYLALNVGFEDPELGTAILKDGDTIQDTKSA
For orientation: stoichiometry N means the number of molecules, sites or subunits per partner or assembly. As for B1, in data set [1], the “stoichiometry N” value was 7 and 14.

B2: YebT, full length, C-terminal 6xHis tag (natural protein, E. coli, UniProt P76272 1-877, looked up)
chain: MSQETPASTTEAQIKNKRRISPFWLLPFIALMIASWLIWDSYQDRGNTVTIDFMSADGIVPGRTPVRYQGVEVGTVQDISLSDDLRKIEVKVSIKSDMKDALREETQFWLVTPKASLAGVSGLDALVGGNYIGMMPGKGKEQDHFVALDTQPKYRLDNGDLMIHLQAPDLGSLNSGSLVYFRKIPVGKVYDYAINPNKQGVVIDVLIERRFTDLVKKGSRFWNVSGVDANVSISGAKVKLESLAALVNGAIAFDSPEESKPAEAEDTFGLYEDLAHSQRGVIIKLELPSGAGLTADSTPLMYQGLEVGQLTKLDLNPGGKVTGEMTVDPSVVTLLRENTRIELRNPKLSLSDANLSALLTGKTFELVPGDGEPRKEFVVVPGEKALLHEPDVLTLTLTAPESYGIDAGQPLILHGVQVGQVIDRKLTSKGVTFTVAIEPQHRELVKGDSKFVVNSRVDVKVGLDGVEFLGASASEWINGGIRILPGDKGEMKASYPLYANLEKALENSLSDLPTTTVSLSAETLPDVQAGSVVLYRKFEVGEVITVRPRANAFDIDLHIKPEYRNLLTSNSVFWAEGGAKVQLNGSGLTVQASPLSRALKGAISFDNLSGASASQRKGDKRILYASETAARAVGGQITLHAFDAGKLAVGMPIRYLGIDIGQIQTLDLITARNEVQAKAVLYPEYVQTFARGGTRFSVVTPQISAAGVEHLDTILQPYINVEPGRGNPRRDFELQEATITDSRYLDGLSIIVEAPEAGSLGIGTPVLFRGLEVGTVTGMTLGTLSDRVMIAMRISKRYQHLVRNNSVFWLASGYSLDFGLTGGVVKTGTFNQFIRGGIAFATPPGTPLAPKAQEGKHFLLQESEPKEWREWGTALPK
On to B2, for which the “stoichiometry N” value in data set [2] came to 6.

B3: OmpF (natural protein, E. coli (endogenous in Rosetta 2 (DE3)), UniProt P02931 23-362, looked up)
chain: AEIYNKDGNKVDLYGKAVGLHYFSKGNGENSYGGNGDMTYARLGFKGETQINSDLTGYGQWEYNFQGNNSEGADAQTGNKTRLAFAGLKYADVGSFDYGRNYGVVYDALGYTDMLPEFGGDTAYSDDFFVGRVGGVATYRNSNFFGLVDGLNFAVQYLGKNERDTARRSNGDGVGGSISYEYEGFGIVGAYGAADRTNLQEAQPLGNGKKAEQWATGLKYDANNIYLAANYGETRNATPITNKFTNTSGFANKTQDVLLVAQYQFDFGLRPSIAYTKSKAKDVEGIGDVDLVNYFEVGATYYFNKNMSTYVDYIINQIDSDNKLGVGSDDTVAVGIVYQF
B3: the “stoichiometry N” value in data set [3] is about 1.

B4: His-tagged MlaD, co-expressed from the mlaFEDCB operon (natural protein, E. coli, UniProt P64604 1-183, looked up)
chain: MQTKKNEIWVGIFLLAALLAALFVCLKAANVTSIRTEPTYTLYATFDNIGGLKARSPVSIGGVVVGRVADITLDPKTYLPRVTLEIEQRYNHIPDTSSLSIRTSGLLGEQYLALNVGFEDPELGTAILKDGDTIQDTKSAMVLEDLIGQFLYGSKGDDNKNSGDAPAAAPGNNETTEPVGTTK
As for B4, the binding result in data set [4] is reported as “binds”.

B5: PqiB periplasmic domain (residues 39-546) (domain or fragment, E. coli, UniProt P43671 39-546, looked up)
chain: SHQGPEVTLITANAEGIEGGKTTIKSRSVDVGVVESATLADDLTHVEIKARLNSGMEKLLHKDTVFWVVKPQIGREGISGLGTLLSGVYIELQPGAKGSKMDKYDLLDSPPLAPPDAKGIRVILDSKKAGQLSPGDPVLFRGYRVGSVETSTFDTQKRNISYQLFINAPYDRLVTNNVRFWKDSGIAVDLTSAGMRVEMGSLTTLLSGGVSFDVPEGLDLGQPVAPKTAFVLYDDQKSIQDSLYTDHIDYLMFFKDSVRGLQPGAPVEFRGIRLGTVSKVPFFAPNMRQTFNDDYRIPVLIRIEPERLKMQLGENADVVEHLGELLKRGLRGSLKTGNLVTGALYVDLDFYPNTPAITGIREFNGYQIIPTVSGGLAQIQQRLMEALDKINKLPLNPMIEQATSTLSESQRTMKNLQTTLDSMNKILASQSMQQLPTDMQSTLRELNRSMQGFQPGSAAYNKMVADMQRLDQVLRELQPVLKTLNEKSNALVFEAKDKKDPEPKRAKQ
Turning to B5, the “stoichiometry N” value in data set [5] came out at 6.

These data come from PMC5467742 (Cell, 2017).
